# Test: soluble on expression in E. coli; label from the status in PepcDB or PDB records
row,Sequence,soluble on expression in E. coli
1,ASEKVGMNLVTAQGVGQSIGTVVIDETEGGLKFTPHLKALPPGEHGFHIHANGSCQPAIKDGQAVAAEAAGGHLDPQNTGKHEGPEGQGHLGDLPVLVVNNDGIATEPVTAPRLKSLDEVKDKALMIHVGGDNMSDQPKPLGGGGTRYACGVIK,soluble
2,MSLDNFLTTGFLDIIPLSQPLEFRREGLQHGVLDKLRSGKYPQQASLNLLRQPVEECRKMMFSFIQQAMADGLRNVLIIHGKGREDKSHANIVRSYVARWLTEFDDVQAYCTALPHHGGSGACYVALRKTAQAKQENWERHAKRSREGHHHHHH,not soluble
3,MSLKYSSTTADYLQWSEAMNLIRKLARDSNYKMSLLIALGCFTGLRISDILALRWNQILDAEEFTIIEIKTGKQRTIRINMQLQQHIRDCYEHINPVGINAPVLISQKGTVYTVQRINVMLKEIKKKYKLQIGNFSCHSLRKTFGRQVYNMNSDNSELALVKLMELFNHSSVSITKRYLGLRQEELLNTYDCLSF,not soluble
4,MKCKFCSREAYIKIHYPKMYLCEEHFKEYFERKVSRTIERYKLLTKDERILVAVSGGKDSAVTAYVLKKLGYNIECLHINLGISGYSEKSEEYAKKQCKLIGAPLHIVRIKEILGYGIGEVKTRRPPCSYCGLTKRYIMNKFAYDNGFDAIATGHNLDDEASFLLNNILHWNTEYLAKGGPILPQQGKFIKKVKPLYEVTEREVVAYALAVGLEYIVEECPYARGATTLDMKGVLNELEEKRPGTKFNFVRGYLKKKKLFEPEIKEKEIKECKICRMPSSGDICAFCKFWGLKKEINFKVSSTDEEPFGP,soluble
5,MSRPRAKLTGNFPGCPVESALSFLDGKWKGVILYHLINEGTLRFNELRRHIPSVTQRMLTKQLRELEEAGLISRTVFPVVPPRVDYALTPLGETMRPVISALKSWGDAHVVCKNGEKYTRAPTVAEKAA,not soluble
6,REGITKNPTKRIIKDVETVDYPEKLIVPYIDTVHDRIVLELFRGCTRGCRFCQAGMIYRPIREKSVKRLKEILDKLVKNTGYDEISLSSLSTSDYSKLSELTDYLVDEYASNNIGISLPSLRLDNFSMEIADKIQQVRKSGLTFAPEAGTQRLRDVINKGVTEEDLENATERAFEMGWNSVKLYFMIGLPTETYEDLDGIAKLAYKV,not soluble
7,MGSDKIHHHHHHMEDKQKVIFIEDDPNLGLIIVLALQSKGYEVCYANTLSGIQDMIEKDCPNILLLDLEVGNQNALDYLPFIRSKHPSLPVLIASSHNEGEEITRCYEAGANHYTKKPYDIQEIDFLIQRFCKKGSPISNSISIGDYQLELSTHKLFYKQEQSKTLSPKDFKLFYLLSEQLNQPVSREKLFHEIWDGQEVHDSLNNSISRLRKLLEKDTTLSIDAVKGVGYILSKKDQLSSS,not soluble
8,MSKCSADETPVCCCMDVGTIMDNSDCTASYSRVFATRAEAEETLAALTEKARSVESEPCQITPTFTEESEGVRLDIDFVFACEAETLIFQLGLRLEHHHHHH,not soluble
9,MATFNLNGLGTPKSATYDNESAYRELLSRVNNGESIVVSVYTDKDNYPAFGIETKKVARFKVRVNQSLLSLLVGYLNNSTVNEDTVRANEVEPNEEGQDFTTDLFKLLIDEGFTPQIAPLFRTVYGYVNAVFNFPNGRMYFRLEHTDELMDYLADKKLL,not soluble
10,MGSDKIHHHHHHMPYSLHLPGYSIGDNAYEKIDAIVSTYGSSVAVIGGKTALEKSRPRLEAALAHSGIEVVDWIVYGHNCTYERVDALCGMPTVQQADMIFGVGGGRAVDTVKVVANRLGKPLFAFPTLGSNCAAATNLSVVYKDDDSLAGYDFQRGPCHHVFIDTTVIAQSPAELLWAGIADGMSKECEVKLQSRGRNLSHAPLMGRNVCSAVTPALMDFGLQALEDCRAGRSSQAIEEVALAIIMTCGYVSNMAVDPGQAYYYNSSLAHAFYNSSTAFPECVGKHLHGEIVSYGVLALLQYDGDMETKRRYVEFYKQMGFPLTLADLDLQESDIPELVSHVPATTEWKTGDFDLERFAQAIIDAQVFA,not soluble
11,MGSDKIHHHHHHMAGTTTTRKKFRVAVSGATVDGREIKPEHLRDAAANYSPDVYGARVNVEHYLSPYPDSDFGAMGDVTALSAEDITDGPLSGRTALYAEIEPSARMKQLTDAGKKVFSSIELHPQFALNGKAYVMGLAMTDTPASLGTERLKFATQQRAQVMAFNNQQAEAPMFSDAIEADVIELTAQRGEEGKQWFNRVMGIMGKGKKSDDERFSQVHQAVEVVAQSQADLSDQFSAVEQARASDKQAIEKLTSDFEALRQKLSVTDGSFSHRPPAGGGNNSQLADY,not soluble
12,GNSITSATDEQPHIGNYRLQKTIGKGNFAKVKLARHVLTGREVAVKIIDKTQLNPTSLQKLFREVRIMKILNHPNIVKLFEVIETEKTLYLVMEYASGGEVFDYLVAHGRMKEKEARAKFRQIVSAVQYCHQKYIVHRDLKAENLLLDGDMNIKIADFGFSNEFTVGNKLDTFCGSPPYAAPELFQGKKYDGPEVDVWSLGVILYTLVSGSLPFDGQNLKELRERVLRGKYRIPFYMSTDCENLLKKLLVLNPIKRGSLEQIMKDRWMNVGHEEEELKPYTEPDPDFNDTKRIDIMVTMGFARDEINDALINQKYDEVMATYILLGRK,soluble
13,MSLIQQQPIKPLANSQVCCSDFSQYPWIQLATTEDINFQLDKDSPIGHFSDGNSYFNAFKFAERSGKVQLRLSSLMINDSVAAPKLIALDHEFNVVSTTSLDQFDVKPSDAFTRTQFQLNFQLNAAKTPYFIIYSSNEYLGQSIKVKHPARIRAEELGEPMPMVTDPTYAYERFGKLKLSIKTLSLQADKQADQQPKVAIKSAQPETHTFYKEAIVEAVKTNDIPKALALLEEAKSLGIQDAQDTFVQALESQKEGHHHHHH,soluble
14,MYPNLFQPLDLGFTQLKNRVLMGSMHTGLEENKEGLHKLAAFYEERAKGGVGLIVTGGFSPNLRGRLHPFSAEFSKTKHAKAHKVVTEAVHRHGAKIALQLLHAGRYAMHPFSQSASAIRAPIAKFAPSEMSTRQIRNTIQDFANSAELAQLAGYDGVEVMGSEGYLINQFICKRTNMRYDEWGGSYQNRIRFPVEIVKAIREAVGKEFIIIFRLSMLDLVEQGSTFEEVVVLAKALEEAGVTIINTGIGWHEARIPTIATQVPRAAFSWVTEKIKPYLKVPVVTCNRINTPEQAEKILASGQADMVSMARPFLADADFVRKAQEGQSALINTCIGCNQACLDNVFRGKRASCLVNPRACYETEIVVKPAQSKKIAVVGAGPAGLAFATTASERGHQVDLFERNDRIGGQFRLAMQIPGKEEFRETIRYFANRIDQTGVKLHLGCEVQFSDLRGYDEVVIATGVTPRKIALAGLSESSKVVDYQTLIREKTPVGQKVAIVGAGGIGVDVASMLTEPKDQTLDDWLYEWGIDKAIEHPGGLYPYPETTSEREVWLLQRRKGAVGKGPGKTTGWIHKRTLEKRGVHLVGGVQYQKIDEQGLHIERDGKSELIDADSVVICAGQESVRPFEAQWAELGDKLHVIGGADVAGELDAARAIRQGVELAVRL,not soluble
15,MKNYPVKKNDVIEVEIIDLTHEGLGVAKVDHYPLFIENALPGEKLEIKVLKTGKSFGYGKVLTVLKSSEQRVPVKDENFTKVGISPLQHLAYGAQLSFKTQQVENVMQRVAKLQEVPVLPTIGMNDPWHYRNKAQIPVRKIDNQLQTGFFRKNSHDLIPMEHFYIQDPEIDAAIVKIRDIMRKYSVKPYNESDNTGNLRHIVVRRGYHTGEMMVVLITRTPKLFPISKIVPDILEAIPEVVSIVQNVNPKRTNVIFGDETILLHGSEKITDTIFDLKFEISARSFYQVNPQQTEVMYQKVKEYAALTGNEIVVDAYCGIGTIGLTLAQDAKQVYGIEVIEEAVKDAENNAKLNNIENATFTAGLAEELLPKLVENGLQPDVVVVDPPRKGLDGQLVNTLIETQPERIVYVSCNPATLARDIALLTEGGYEAKEIQPVDNFPQTTHIESVTLLTKAVD,not soluble
16,MGSDKIHHHHHHMTGRQFDIEPLMDEINKSLKQEVNYLTEAQNTDLVKRTLTADHYVVPKVYHDYTTETVLTQSFETGLSVNQWIRSNPSRSDIQNFSQLVIQLMIDEMLLTGVVQTDPNYANFLYRPDSRQLVLLDFGATWTYSTEFRHDIHKLSMALLSGEIDKLMVGIYTRGYLDTRESDETKAQLREVLRMIGDISANLPQPVALQVDVAHDEIRAAAHVMGRGIRHTTLHKDLVLIGRKLTGMLLLLKEINAIVDFNEVRAHISAIKV,not soluble
